# Measured values: paper PMC7888922
# Target: sACE2_(2).v2.4-IgG1 (human) (UniProt Q9BYF1)
# Assay: BLI
Substance,Kd,koff,kon
SARS-CoV-2 RBD-N501Y (8his-tagged) (from UniProt P0DTC2 333-529) (domain or fragment),< 0.1 nM,0.00011 s⁻¹,360000 M⁻¹ s⁻¹
SARS-CoV-2 RBD-Y449K (8his-tagged) (from UniProt P0DTC2 333-529) (domain or fragment),0.9 nM,0.004 s⁻¹,4.3e+06 M⁻¹ s⁻¹
